In US20240301048A1 (LANIER BIOTHERAPEUTICS, published 2024):

B1: ABM60 (antibody, V domains shown)
VH: EVHLKESGPDLVAPSQSLSITCTVSGFSLTTYGVHWVRQPPGKGLEWLVVIWSDGLTTYNSALKSRLSISKDNSKSQVFLKMNSLRTDDTAMYYCARDYTYEYAMDYWGQGTTVTVSS
VL: DILLTQSPLSLPVSLGDQASISCRSSQSLVHSNGNTYLHWYLQKPGQSPKLLIYKVSNRFSGVPDRFSGSESGTDFTLKISRVEAEDLGVYFCSQSTHVPFTFGSGTKLEIKR
B2: Ixekizumab (antibody, V domains shown)
VH: QVQLVQSGAEVKKPGSSVKVSCKASGYSFTDYHIHWVRQAPGQGLEWMGVINPMYGTTDYNQRFKGRVTITADESTSTAYMELSSLRSEDTAVYYCARYDYFTGTGVYWGQGTLVTVSS
VL: DIVMTQTPLSLSVTPGQPASISCRSSRSLVHSRGNTYLHWYLQKPGQSPQLLIYKVSNRFIGVPDRFSGSGSGTDFTLKISRVEAEDVGVYYCSQSTHLPFTFGQGTKLEIKR
B3: ABM67 (antibody, V domains shown)
VH: EVKLVESGGGLVKPGGSLKLSCAASGFTFSSYAMSWVRQTPEKRLEWVATISSGGSYTYYPDSVKGRFTISRDNAKNTLYLQMSSLRSEDTAMYYCARQNWDAFVYWGQGTLVTASA
VL: DIVLTQSPAILSVSPGERVSFSCRAGQSIGTSIHWYQRRTNGSPRLLIKSASESISGIPSRFSGSGSGTDFTLSINSVESEDIADYYCQQSNSWPLTFGAGTKLEIKR
B4: ABM64 (antibody, V domains shown)
VH: QVHVKQSGPELVRPGVSVKISCKGSGYTFTDYAMHWVKQSHAKSLEWIGVISTYSGNTNYNQKFKGKATMTVDKSSSTAYMELARLTSEDSAIYYCARGNYGSDWGQGTLVTVSA
VL: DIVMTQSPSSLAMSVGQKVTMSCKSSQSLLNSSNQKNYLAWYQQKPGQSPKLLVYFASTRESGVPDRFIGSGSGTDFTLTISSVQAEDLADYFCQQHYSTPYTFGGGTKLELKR
B5: ABM59 (antibody, V domains shown)
VH: EVKLVESGGGLVKPGGSLKLSCAASGFAFSSYDMSWVRQTPEKRLEWVAYISSGGGNTYYPDTVKGRFTISRDNAKNTLYLQMSSLKSEDTAMYYCAREALTMISTRDYYAMDYWGQGTSVTVSS
VL: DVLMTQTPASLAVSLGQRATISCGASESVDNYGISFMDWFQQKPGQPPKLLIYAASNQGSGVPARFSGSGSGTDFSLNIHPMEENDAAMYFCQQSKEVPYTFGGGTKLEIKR

Target: T1, recombinant human IL-17A (R&D Systems) (human, UniProt Q16552 24-155)
Test: cell-based or functional assay

T1 sequence (Q16552 24-155 limits assumed): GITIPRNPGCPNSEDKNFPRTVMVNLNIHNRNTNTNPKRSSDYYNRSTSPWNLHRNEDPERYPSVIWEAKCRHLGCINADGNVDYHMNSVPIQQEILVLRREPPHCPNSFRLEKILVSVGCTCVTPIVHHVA

IC50 (read off the curve), IL-6 in 3T3 cells [µg/mL]	Binder
~0.8	B1
~0.2	B2

Target: T1, recombinant human IL-17A (R&D Systems)
Test: cell-based or functional assay
Remark: another data set of the same source

IC50 (read off the curve), CXCL1 in HT29 cells [µg/mL]	Binder
~0.1	B2

Target: T1, recombinant human IL-17A (R&D Systems)
Test: cell-based or functional assay
Remark: another data set of the same source

IL-17A Bioassay Potency (IC50, nM) [nM]	Binder
0.39	B2

Target: T1, recombinant human IL-17A (R&D Systems)
Test: SPR, Biacore T-100; antibody immobilized on CM5 chip, rhIL17A 2.5-40 nM as analyte, single cycle kinetics
Protocol: The surface was regenerated with a 30 second exposure of 10 mM Glycine-HCL pH 1.5. Single cycle kinetic analysis was performed on each antibody with the reference cell subtracted.

Kd [nM]	koff [s⁻¹]	kon [M⁻¹ s⁻¹]	Binder
0.24	5.65e-05	278000	B1
0.169	0.000121	713000	B3
0.248	0.000311	1.25e+06	B4
0.506	0.00057	1.13e+06	B5
0.0069	1.39e-05	2.01e+06	B2
